These results are taken from paper PMC5910394 (Nature Communications, 2018).

The assay addresses T1, HER2 on BT474 cells (Homo sapiens, BT474 cells, UniProt P04626).
T1 construct: HER2 (human epidermal growth factor receptor 2) on HER2-overexpressing BT474 breast cancer cells; source: endogenous, on BT474 cells
The assay can be described thus: flow cytometry on cells; BT474 cells with 1, 10 or 100 nM of the AF647-carrying memAb complex. The conditions noted are these: one partner purified.

B1: memAb pertuzumab IgG with pre-bound 5-diphenylalanine-meditope-Alexa-647 (complex)
VH: EVQLVESGGGLVQPGGSLRLSCAASGFTFTDYTMDWVRQSPGKGLEWVADVNPNSGGSIYNQRFKGRFTLSVDRSKNTLYLQMNSLRAEDTAIYYCARNLGDGFYAMDYWGQGTLVTVSS
VL: DIQLTQSPVILSASVGDRVTITCRAGESVDIFGVGFLHWYQQRTNGSPRLLIYRASNLESGVPSRFSGSGSRTDFTLTISSLQPEDEADYYCQQTNEDPYTFGAGTKVEIK
notes: as the heavy chain of Dm25; as the light chain of Dm25; as the peptide Dm26; non-covalent complex; source: IgG: ExpiCHO, purified; peptide: synthetic; copies: + +
Consider B1, for which the binding result is “binds”.
